Results on 1 molecule are retold here after patent publication US6939679 (RIKEN, dated 2005).

The target in the experiment is T1, Mus 16-3-3 epsilon (mouse, UniProt P62259 1-255).
T1 construct: VP16 fusion as in the yeast two-hybrid screen; also called 14-3-3 E; 14-3-3 epsilon
T1 sequence: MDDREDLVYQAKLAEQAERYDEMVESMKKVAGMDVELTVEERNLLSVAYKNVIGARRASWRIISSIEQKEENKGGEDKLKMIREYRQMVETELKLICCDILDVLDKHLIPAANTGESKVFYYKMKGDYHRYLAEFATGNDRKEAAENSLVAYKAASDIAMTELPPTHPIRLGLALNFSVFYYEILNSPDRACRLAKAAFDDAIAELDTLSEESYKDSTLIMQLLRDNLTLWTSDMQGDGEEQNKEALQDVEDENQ
The experiment in a line: yeast two-hybrid, lexA-NADE bait against VP16 mouse embryo cDNA library; His selection, beta-gal assay and mating test.

B1: NADE-lexA fusion protein (other)
chain: MANVHQENEEMEQPLQNGQEDRPVGGGEGHQPAANNNNNNHNHNHNHHRRGQARRLAPNFRWAIPNRQMNDGLGGDGDDMEMFMEEMREIRRKLRELQLRNCLRILMGELSNHHDHHDEFCLMP
notes: range 1-124; Bait of the yeast two-hybrid screen; also called pBTM116-NADE; lexA-X fusion protein
Turning to B1, the binding result is “binds”.
